Source: patent publication US20170174769A1 (Regeneron, published 2017)
Where “and” joins values, the source holds several entries; their conditions need not be identical. Equal values may be shown once. Read-outs that look alike come from different tables or passages of the source.

T1: recombinant cynomolgus monkey FGF21 with an N-terminal hexahistidine tag (cynomolgus monkey)
T1 construct: also called His6-MfFGF21; mfFGF21
T1 chain: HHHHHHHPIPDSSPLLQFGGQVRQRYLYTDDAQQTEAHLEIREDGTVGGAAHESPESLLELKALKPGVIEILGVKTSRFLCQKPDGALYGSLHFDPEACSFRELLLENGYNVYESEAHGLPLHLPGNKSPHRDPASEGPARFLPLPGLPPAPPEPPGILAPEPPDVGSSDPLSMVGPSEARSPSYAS

T2: biotinylated human FGF21 expressed with a N-terminal hexahistidine tag (human, UniProt Q9NSA1 29-209, biotinylated (site not stated))
T2 construct: also called biotin-6His-hFGF21; biotin 6His-hFGF21
T2 sequence: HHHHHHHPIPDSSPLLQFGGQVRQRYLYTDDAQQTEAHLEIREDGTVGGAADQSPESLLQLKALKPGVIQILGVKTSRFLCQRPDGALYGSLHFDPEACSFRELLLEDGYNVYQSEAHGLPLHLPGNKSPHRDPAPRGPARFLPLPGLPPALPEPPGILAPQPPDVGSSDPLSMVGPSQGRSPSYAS

T3: mouse FGF21 (mouse, UniProt Q9JJN1 29-210)
T3 construct: also called mFGF21 (Prospec, # CYT-339)
T3 sequence (looked up): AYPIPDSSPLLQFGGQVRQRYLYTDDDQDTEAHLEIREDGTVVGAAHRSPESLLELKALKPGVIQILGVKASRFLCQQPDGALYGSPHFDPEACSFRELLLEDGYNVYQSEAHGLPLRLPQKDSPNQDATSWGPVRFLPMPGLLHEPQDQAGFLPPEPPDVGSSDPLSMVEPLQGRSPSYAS

T4: rat FGF21 (rat, UniProt A0A7U3JW68 29-208)
T4 sequence: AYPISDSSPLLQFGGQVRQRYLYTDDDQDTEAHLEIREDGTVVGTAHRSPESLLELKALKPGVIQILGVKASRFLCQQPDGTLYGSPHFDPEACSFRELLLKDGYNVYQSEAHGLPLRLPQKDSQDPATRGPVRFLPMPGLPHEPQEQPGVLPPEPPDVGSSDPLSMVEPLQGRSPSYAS

B1: recombinant human FGF21 expressed with an N-terminal hexahistidine tag (ligand)
chain: HHHHHHHPIPDSSPLLQFGGQVRQRYLYTDDAQQTEAHLEIREDGTVGGAADQSPESLLQLKALKPGVIQILGVKTSRFLCQRPDGALYGSLHFDPEACSFRELLLEDGYNVYQSEAHGLPLHLPGNKSPHRDPAPRGPARFLPLPGLPPALPEPPGILAPQPPDVGSSDPLSMVGPSQGRSPSYAS

Tests used:
[1] = molecular target: B1; assay: cell-based or functional assay
[2] = molecular target: B1; assay: SPR Biacore 4000, mAb captured, 25 C
Protocol: (§1) Antibodies were captured on a goat anti-mouse IgG polyclonal antibody (GE Healthcare, BR-1008-38) surface created through direct amine coupling of the anti-IgG antibodies to a Biacore CM5 sensor chip. Kinetic experiments were carried out using HBS-EP (10 mM HEPES, 150mM NaCl, 3 mM EDTA, 0.05% Surfactant P20, pH 7.4) as both the running buffer and the sample buffer. […] Antibody-antigen association was monitored for 180 seconds while dissociation in buffer was monitored for 300 seconds. Kinetic association (kₐ) and dissociation (kd) rate constants were determined by processing and fitting the data using Scrubber software version 2.0c. Binding dissociation equilibrium constants (KD) and dissociative half-lives (t_{1/2}) were calculated from the kinetic rate constants as: KD =kd/kₐ and t112 =In(2)/kd.

[3] = molecular target: T1, recombinant cynomolgus monkey FGF21 …; assay: SPR Biacore 4000, mAb captured, 25 C
Protocol: as §1

[4] = molecular target: B1; assay: SPR Biacore 4000, mAb captured, 37 C
Protocol: as §1

[5] = molecular target: T1, recombinant cynomolgus monkey FGF21 …; assay: SPR Biacore 4000, mAb captured, 37 C
Protocol: as §1

[6] = molecular target: T2, biotinylated human FGF21 expressed with …; assay: competition ELISA: mAb blocks 300 pM biotin-6His-hFGF21 binding to coated hKLB-10his
Protocol: The ability of anti-FGF21 antibodies to block human FGF21 binding to a cognate binding partner human klotho beta was evaluated with an ELISA-based immunoassay. Briefly, human klotho beta (hKLB-10his; R&D systems, #5889-KB-050) was coated at 2μg/mL on a 96-well plate in PBS buffer overnight at 4° C. […] The equilibrated sample solutions were then transferred to hKLB-10his-coated plates. […] Samples were developed with a TMB solution to produce a colorimetric reaction and then neutralized with 1M sulfuric acid before measuring absorbance at 450 nm on a Victor plate reader. Data analysis was performed using a sigmoidal dose-response model within Prism™ software (GraphPad).
The absorbance values of the wells containing the highest concentration for each antibody were used to determine the percent maximum blockade.

mouse FGF21 = molecular target: T3, mouse FGF21; assay: not described
rat FGF21 = molecular target: T4, rat FGF21; assay: not described
[7] = molecular target: T5, human KLB and human FGFR1c co-expressed on HEK293/hKLB/hFGFR1c/SRE-luc cells (human, UniProt Q86Z14 1-1044; P11362 22-822); assay: cell-based or functional assay
[8] = molecular target: mouse KLB and mouse FGFR1c co-expressed on HEK293/mKLB/mFGFR1c/SRE-Luc cells (mouse); assay: cell-based or functional assay
[9] = molecular target: T5, human KLB and human FGFR1c co-expressed …; assay: cell-based or functional assay; remark: listed apart in the source
[10] = molecular target: T5, human KLB and human FGFR1c co-expressed …; assay: cell-based or functional assay; remark: listed apart in the source
[11] = molecular target: T6, cell-surface human FGFR1c (amino acids 1-731 of NP_075594) with cell-surface human KLB on … (human, UniProt P11362 22-822); assay: cell-based or functional assay
[12] = molecular target: T6, cell-surface human FGFR1c (amino acids …); assay: cell-based or functional assay; remark: listed apart in the source

T5 sequence (Q86Z14 whole entry, chain 1 of 2): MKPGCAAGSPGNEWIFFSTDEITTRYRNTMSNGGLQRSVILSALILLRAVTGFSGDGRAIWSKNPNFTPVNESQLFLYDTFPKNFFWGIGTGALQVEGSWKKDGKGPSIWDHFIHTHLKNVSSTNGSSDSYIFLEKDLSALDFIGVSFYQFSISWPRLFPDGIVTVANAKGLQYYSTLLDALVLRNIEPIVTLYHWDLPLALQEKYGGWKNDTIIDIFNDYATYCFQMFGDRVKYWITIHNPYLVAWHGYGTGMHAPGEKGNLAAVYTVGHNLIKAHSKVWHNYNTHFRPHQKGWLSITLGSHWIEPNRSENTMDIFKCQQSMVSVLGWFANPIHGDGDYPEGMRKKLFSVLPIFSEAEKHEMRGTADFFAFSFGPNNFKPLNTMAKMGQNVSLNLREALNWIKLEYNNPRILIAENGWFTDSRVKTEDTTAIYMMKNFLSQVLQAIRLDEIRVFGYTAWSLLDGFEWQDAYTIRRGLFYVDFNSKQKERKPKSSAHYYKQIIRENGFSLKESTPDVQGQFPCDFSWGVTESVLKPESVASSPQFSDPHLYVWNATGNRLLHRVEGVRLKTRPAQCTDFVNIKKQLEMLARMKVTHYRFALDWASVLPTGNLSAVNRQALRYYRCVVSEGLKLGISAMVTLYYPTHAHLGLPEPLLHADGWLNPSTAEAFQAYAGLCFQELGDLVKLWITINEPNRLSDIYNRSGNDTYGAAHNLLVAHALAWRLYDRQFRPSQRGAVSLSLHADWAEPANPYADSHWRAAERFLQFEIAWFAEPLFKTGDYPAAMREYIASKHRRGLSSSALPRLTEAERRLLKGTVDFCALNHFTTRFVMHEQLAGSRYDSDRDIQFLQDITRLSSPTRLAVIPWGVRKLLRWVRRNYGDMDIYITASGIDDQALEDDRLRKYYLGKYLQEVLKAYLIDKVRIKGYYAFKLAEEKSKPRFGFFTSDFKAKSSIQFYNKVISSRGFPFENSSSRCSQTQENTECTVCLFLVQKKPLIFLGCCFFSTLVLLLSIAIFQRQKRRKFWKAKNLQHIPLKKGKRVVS
T5 sequence (P11362 other isoform, or with tags, fused parts or gaps limits assumed, chain 2 of 2): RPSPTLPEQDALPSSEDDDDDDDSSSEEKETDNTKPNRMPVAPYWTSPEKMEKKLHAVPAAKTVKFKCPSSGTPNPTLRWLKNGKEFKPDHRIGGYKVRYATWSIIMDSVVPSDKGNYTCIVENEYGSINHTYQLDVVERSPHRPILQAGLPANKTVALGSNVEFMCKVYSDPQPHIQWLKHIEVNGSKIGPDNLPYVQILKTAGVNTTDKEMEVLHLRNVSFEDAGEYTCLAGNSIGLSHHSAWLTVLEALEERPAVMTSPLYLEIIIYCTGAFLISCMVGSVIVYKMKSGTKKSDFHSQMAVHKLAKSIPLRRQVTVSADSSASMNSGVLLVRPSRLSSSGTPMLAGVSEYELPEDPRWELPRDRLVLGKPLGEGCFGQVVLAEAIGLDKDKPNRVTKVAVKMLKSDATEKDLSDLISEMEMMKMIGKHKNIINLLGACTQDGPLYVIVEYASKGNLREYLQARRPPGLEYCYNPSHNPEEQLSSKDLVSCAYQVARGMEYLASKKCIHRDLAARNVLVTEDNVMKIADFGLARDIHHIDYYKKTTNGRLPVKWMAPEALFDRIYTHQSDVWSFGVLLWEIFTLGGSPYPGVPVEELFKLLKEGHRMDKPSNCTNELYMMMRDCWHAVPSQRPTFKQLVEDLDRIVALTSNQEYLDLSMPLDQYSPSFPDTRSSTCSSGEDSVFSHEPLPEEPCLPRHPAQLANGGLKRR
T6 sequence (P11362 22-822, chain 1 of 2): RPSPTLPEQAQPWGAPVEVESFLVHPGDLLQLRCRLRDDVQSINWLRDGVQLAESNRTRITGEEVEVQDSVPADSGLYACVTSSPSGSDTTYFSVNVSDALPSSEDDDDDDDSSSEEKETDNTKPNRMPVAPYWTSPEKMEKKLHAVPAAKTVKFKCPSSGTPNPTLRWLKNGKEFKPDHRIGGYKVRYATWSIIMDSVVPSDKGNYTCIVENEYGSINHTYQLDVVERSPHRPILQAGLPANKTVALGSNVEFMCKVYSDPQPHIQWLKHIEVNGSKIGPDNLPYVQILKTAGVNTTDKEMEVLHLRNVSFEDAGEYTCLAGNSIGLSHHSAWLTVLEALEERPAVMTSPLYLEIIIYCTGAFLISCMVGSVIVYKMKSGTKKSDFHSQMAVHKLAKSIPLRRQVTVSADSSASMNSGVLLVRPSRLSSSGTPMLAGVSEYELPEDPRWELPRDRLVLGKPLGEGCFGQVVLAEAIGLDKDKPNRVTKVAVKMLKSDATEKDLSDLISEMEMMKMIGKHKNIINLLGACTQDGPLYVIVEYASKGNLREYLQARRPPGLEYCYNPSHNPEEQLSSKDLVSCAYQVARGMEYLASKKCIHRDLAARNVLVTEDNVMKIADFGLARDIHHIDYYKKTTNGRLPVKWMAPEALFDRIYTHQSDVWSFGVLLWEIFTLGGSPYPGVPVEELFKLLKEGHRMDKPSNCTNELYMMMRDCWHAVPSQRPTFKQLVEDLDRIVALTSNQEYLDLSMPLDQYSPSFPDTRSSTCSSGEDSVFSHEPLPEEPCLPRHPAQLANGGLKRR
T6 sequence (chain, as listed by the source, chain 2 of 2): as the sequence (Q86Z14 whole entry, chain 1 of 2) above

IC50, inhibition of 1 nM FGF21 activation of 293/hKLB/FGFR1c/SRE-Luc cells [1]	Kd [2]	koff [2]	kon [2]	t1/2 [2]	Kd [3]	koff [3]	kon [3]	t1/2 [3]	Kd [4]	koff [4]	kon [4]	t1/2 [4]	Kd [5]	koff [5]	kon [5]	t1/2 [5]	% Blocking at 100 nM Antibody Concentration [6]	binding result (mouse FGF21)	binding result (rat FGF21)	further results	Binder
1 nM	2.3 nM	0.00197 s⁻¹	860000 M⁻¹ s⁻¹	5.9 min	37.2 nM	0.0237 s⁻¹	640000 M⁻¹ s⁻¹	0.5 min	4.4 nM	0.00549 s⁻¹	1.25e+06 M⁻¹ s⁻¹	2.1 min	64 nM	0.053 s⁻¹	820000 M⁻¹ s⁻¹	0.2 min	64%				H2M6504N (antibody, V domains shown, mouse IgG2 Fc (H2M prefix); also called H2aM6504N) VH: EVHLVESGGGLVQPGRSLRLSCVASGFTFDDYAMHWVRQVPGKGLEWVSVITWNSGSIGYADSVKGRFTISRDNAKNSLFLQVSSLRAEDTALYYCAKGISPTGTTPDYWGQGTLVTVSS VL: not shown
																		no binding	no binding		H4H6504N (antibody, V domains shown, 6504N variable domains on human IgG4 Fc (H4H prefix)) VH: EVHLVESGGGLVQPGRSLRLSCVASGFTFDDYAMHWVRQVPGKGLEWVSVITWNSGSIGYADSVKGRFTISRDNAKNSLFLQVSSLRAEDTALYYCAKGISPTGTTPDYWGQGTLVTVSS VL: not shown
1.3 nM																	34%	no binding	no binding	IC50 [6]: > 100 nM	H4H6879P (antibody, V domains shown, human IgG4 Fc (H4H prefix)) VH: QVQLQESGPGLVKPSETLSLTCTVSGGSISGYYWSWIRQPPGKGLEWIGYFYNSGSTNYNPSLKSRVTMSVDTSKNQFSLRLTSVTAADTAVYYCTRERELLYFDYWGQGTLVTVSS VL: not shown
9.1 nM	26.6 nM	0.00297 s⁻¹	111000 M⁻¹ s⁻¹	3.9 min	47.6 nM	0.00316 s⁻¹	66000 M⁻¹ s⁻¹	3.7 min	58.9 nM	0.0139 s⁻¹	236000 M⁻¹ s⁻¹	0.8 min	109 nM	0.0142 s⁻¹	130000 M⁻¹ s⁻¹	0.8 min	31%			IC50 [6]: > 100 nM	H2M6509N (antibody, V domains shown, mouse IgG2 Fc (H2M prefix); also called H2aM6509N) VH: EVQLVESGGGLVKPGGSLRLSCAASGFTFSNAWMSWVRQAPGKGLDWVGRIKNKLDGGTTDYAAPVKGRFTISRDDSKNTLYLQMNSLKTEDTAVYYCTTDHGWNYYYGMDVWGQGTTVTVSS VL: DIQMTQSPSSLSASVGDRVTITCRASQDISNYLAWFQHKPGKAPKSLIYAASSLQGGVPSKFSGSGSGTDFTLTISSLQPEDFATYYCQQYNTYPPTFGAGTKVEIK
11 nM	19.2 nM	0.00669 s⁻¹	349000 M⁻¹ s⁻¹	1.7 min	23.2 nM	0.00578 s⁻¹	250000 M⁻¹ s⁻¹	2 min	41.1 nM	0.0212 s⁻¹	516000 M⁻¹ s⁻¹	0.5 min	46.5 nM	0.015 s⁻¹	323000 M⁻¹ s⁻¹	0.8 min	98%			IC50 [6]: 0.076 nM	H2M6499N (antibody, V domains shown, human variable domains, mouse IgG2 Fc (H2M prefix); also called H2aM6499N) VH: QVHLVQSGAEVKKPGASVKVSCKASGYSFTDYYVHWVRQAPGQGLEWMGWFNPKSGDTNSVQKFQGRVSMTGDTSITTAYLDLRRLTSDDTAVYYCGRSGYFDFWGQGTLVTVSS VL: DVVMTQSPLSLSVTLGQPASISCRSSQSLVFSDGNTFLNWFQQRPGQSPRRLIYNLSNRDSGVPDRFSGSGSGTDFTLKISGVEAEDVGVYYCMQGTHWPLTFGGGTKVEIK
0.5 nM																	8%	no binding	no binding		H4H6915P (antibody, V domains shown, human IgG4 Fc (H4H prefix)) VH: QVQLVESGGGVVQPGRSLRLSCAASGFTFSSYVMHWVRQAPGKGLEWVSVISYDGGNKYYADSVKGRFTISRDNSKNTLDLQMNSLRAEDTAVYYCAKEDDYIWGGFFDLWGRGTLVTVSS VL: DIQMTQSPSSLSASVGDRVTITCRASQGIRNDLGWYQKKPGKAPKRLISAAYSLQSGVTSRFSGSGSGTEFTLTISSLQPEDFATYYCLQHNSYPWTFGQGTKVEIK
																				EC50, SRE-luc activation by ligand [7]: 1.9 nM; EC50, SRE-luc activation [8]: 0.41 nM; EC50, SRE-luc activation by ligand [9]: 0.73 nM and 1.4 nM; EC50, SRE-luc activation by ligand [10]: 2.4 nM and 2.2 nM; % Activation [11]: 100%; EC50, SRE-luc activation [11]: 1.1 nM; % Activation [12]: 100%; EC50, SRE-luc activation [12]: 1.4 nM	B1
